Consider 6 molecules from patent US20200338210A1 (ARDEAGEN, published 2020).

The target in experiment [1] is T1, human ROR1 on cell lines (human, UniProt Q01973 30-937).
T1 construct: Jeko-1 'bearing the ROR1 antigen'); also called Receptor tyrosine kinase-like orphan receptor 1
Nature of the experiment: quantitative flow cytometry on MHCC97H cells (cell only 781). A general note: In flow cytometry, cells or beads pass a laser one at a time.

The target of experiment [2] is T1, human ROR1 on cell lines. Nature of the experiment: quantitative flow cytometry on KATO-III cells (cell only 764).
Experiment [3] concerns the target T1, human ROR1 on cell lines. Nature of the experiment: quantitative flow cytometry on MKN-45 cells (cell only 641.4).
For experiment [4], the target named is T1, human ROR1 on cell lines. Briefly: quantitative flow cytometry on Jeko-1 cells (cell only 237).
Experiment [5] deals with T1, human ROR1 on cell lines. Briefly: quantitative flow cytometry on MHCC97H cells (cell only 1099.77).
Experiment [6] addresses T1, human ROR1 on cell lines. Nature of the experiment: quantitative flow cytometry on Daudi cells (cell only 229).
Experiment [7] deals with T1, human ROR1 on cell lines. Briefly: quantitative flow cytometry on NCI-H2228 cells (cell only 894.37).
Experiment [8] concerns the target T1, human ROR1 on cell lines. Briefly: quantitative flow cytometry on NCI-H226 cells (cell only 1097).
Experiment [9] has as its target T1, human ROR1 on cell lines. Briefly: quantitative flow cytometry on Daudi cells (cell only 328.77).
Experiment [10] addresses T1, human ROR1 on cell lines. Nature of the experiment: quantitative flow cytometry on MDA-MD-231 cells (cell only 942.92).
Experiment [11] addresses T1, human ROR1 on cell lines. Briefly: quantitative flow cytometry on Jeko-1 cells (cell only 340.33).
Experiment [12] has as its target T1, human ROR1 on cell lines. Nature of the experiment: quantitative flow cytometry on KATO-III cells (cell only 1075.85).
In experiment [13] the target is T1, human ROR1 on cell lines. Nature of the experiment: quantitative flow cytometry on MKN-45 cells (cell only 451).
Experiment [14] concerns the target T1, human ROR1 on cell lines. Nature of the experiment: quantitative flow cytometry on NCI-H226 cells (cell only 1536.32).
In experiment [15] the target is T1, human ROR1 on cell lines. Briefly: quantitative flow cytometry on Namalwa cells (cell only 319.84).
The target of experiment [16] is T1, human ROR1 on cell lines. Nature of the experiment: quantitative flow cytometry on NCI-H2228 cells (cell only 633).
Experiment [17] addresses T1, human ROR1 on cell lines. Briefly: quantitative flow cytometry on HCCLM3 cells (cell only 1420.81).
Experiment [18] addresses T1, human ROR1 on cell lines. Briefly: quantitative flow cytometry on MDA-MD-231 cells (cell only 668).
The target of experiment [19] is T1, human ROR1 on cell lines. Briefly: quantitative flow cytometry on HCCLM3 cells (cell only 1014).
For experiment [20], the target named is T1, human ROR1 on cell lines. Nature of the experiment: quantitative flow cytometry on Namalwa cells (cell only 222).
The target of experiment [21] is T1, human ROR1 on cell lines. Briefly: flow cytometry on Jeko-1 cells, FITC secondary, surface signal left after 37 C, 2.5 hr T2 (secondary only 215). The method, then: (§1) The following JeKo-1 internalization assay was used. [0179] 1. Harvest Jeko-1 cells (suspension): count and spin down required cell number for experiment in 15 ml falcon tube. Re-suspended in PBS+3% FBS in bulk and aliquoted 100 μl (500,000 cells) per tube. [0180] 2. 2 μg each ADC per tube were added from bulk dilution, incubated 4° C. (on ice) for 1 hour. [0181] 3. 3×wash in 3 ml PBS+3% FBS. Centrifuge set to 1200 RPM for 3 min spin. Carefully decanted and discarded supernatant at each step. Pulse vortexed cell pellets. Left equal volumes in tubes after final wash. [0182] 4. Placed one set of tubes at 37° C. for each Ab tested, included secondary only control set for comparison. T₀=4° C., T₁=37° C. 30 min, T₁=37+ C., […] [0183] 5. After incubation times were complete, removed tubes from incubator and keep on ice until all samples were collected. [0184] 6. Added FITC labelled secondary, incubate on ice 45 min. [0185] 7. 3×wash in 3 ml PBS+3% FBS. Centrifuge set to 1500 RPM for 5 min spin. Carefully decanted and discarded supernatant at each step. Pulse vortexed cell pellets. Left equal volumes in tubes after final wash. [0186] 8. Collected data on instrument

For experiment [22], the target named is T1, human ROR1 on cell lines. Briefly: flow cytometry on Jeko-1 cells, FITC secondary, surface signal left after 37 C, 30 min T1 (secondary only 216). The method, then: as §1
Experiment [23] has as its target T1, human ROR1 on cell lines. Briefly: flow cytometry on Jeko-1 cells, FITC secondary, 4 C (on ice) T0 (secondary only 242). The procedure: as §1
In experiment [24] the target is T2, ROR1 (target of the KD values in Table 7) (Homo sapiens (Human), UniProt Q01973 30-403, limits assumed). Nature of the experiment: method not stated (Table 7); upper end of the printed range 100-400 pM.
T2 sequence (Q01973 30-403 limits assumed): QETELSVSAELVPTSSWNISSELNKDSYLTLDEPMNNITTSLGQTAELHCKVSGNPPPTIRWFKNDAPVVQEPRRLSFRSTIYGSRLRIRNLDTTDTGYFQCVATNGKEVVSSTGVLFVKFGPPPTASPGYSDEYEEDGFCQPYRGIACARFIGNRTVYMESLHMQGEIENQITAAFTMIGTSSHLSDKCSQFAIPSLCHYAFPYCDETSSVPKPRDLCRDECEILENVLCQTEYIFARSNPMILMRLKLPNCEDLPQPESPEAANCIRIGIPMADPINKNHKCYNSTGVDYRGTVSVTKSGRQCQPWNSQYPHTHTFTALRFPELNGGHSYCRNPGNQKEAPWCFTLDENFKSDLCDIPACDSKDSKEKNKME
The target in experiment [25] is T2, ROR1 (target of the KD values in Table …). Nature of the experiment: method not stated (Table 7); lower end of the printed range 100-400 pM.

T1 sequence (Q01973 30-937 limits assumed): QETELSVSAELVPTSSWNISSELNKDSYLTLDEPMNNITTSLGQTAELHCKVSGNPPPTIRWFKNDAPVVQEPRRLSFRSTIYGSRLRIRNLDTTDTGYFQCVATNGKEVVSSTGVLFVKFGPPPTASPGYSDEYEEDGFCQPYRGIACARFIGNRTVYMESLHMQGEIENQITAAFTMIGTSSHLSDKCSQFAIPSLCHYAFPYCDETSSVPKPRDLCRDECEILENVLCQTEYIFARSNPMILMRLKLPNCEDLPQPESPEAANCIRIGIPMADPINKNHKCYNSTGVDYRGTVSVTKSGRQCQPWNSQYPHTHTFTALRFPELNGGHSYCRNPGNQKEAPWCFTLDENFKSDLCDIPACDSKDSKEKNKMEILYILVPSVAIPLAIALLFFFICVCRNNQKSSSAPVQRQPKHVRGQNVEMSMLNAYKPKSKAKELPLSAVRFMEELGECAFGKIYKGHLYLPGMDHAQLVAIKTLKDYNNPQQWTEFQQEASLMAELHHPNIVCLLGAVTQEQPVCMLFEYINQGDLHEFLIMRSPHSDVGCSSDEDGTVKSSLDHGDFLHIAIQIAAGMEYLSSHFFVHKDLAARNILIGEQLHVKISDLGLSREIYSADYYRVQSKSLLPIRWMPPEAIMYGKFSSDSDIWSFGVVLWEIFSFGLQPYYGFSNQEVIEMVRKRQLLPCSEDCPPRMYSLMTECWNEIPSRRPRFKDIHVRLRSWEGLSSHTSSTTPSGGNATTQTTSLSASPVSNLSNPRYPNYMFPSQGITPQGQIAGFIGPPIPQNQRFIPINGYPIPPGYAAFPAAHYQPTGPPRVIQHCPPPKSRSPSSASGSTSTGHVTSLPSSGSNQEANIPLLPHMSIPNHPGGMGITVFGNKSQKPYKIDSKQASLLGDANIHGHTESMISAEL

For the molecule mIgG (antibody), the Ab binding capacity/cell with human ROR1 on cell lines [1] stood at 757 per cell; with human ROR1 on cell lines [2], 760 per cell; in the experiment with human ROR1 on cell lines [4], 235 per cell; with human ROR1 on cell lines [6] it was 227 per cell; with human ROR1 on cell lines [8], 996 per cell; with human ROR1 on cell lines [13] it was 464 per cell. For the same molecule, the Ab binding capacity/cell was determined as 600 per cell with human ROR1 on cell lines [16], 660 per cell with human ROR1 on cell lines [18], 1024 per cell with human ROR1 on cell lines [19] and 204 per cell in the experiment with human ROR1 on cell lines [20]. Besides, the MFI (Geom. mean of FL2) with human ROR1 on cell lines [3] was determined as 659; with human ROR1 on cell lines [5], 1070; in the experiment with human ROR1 on cell lines [7], 849; with human ROR1 on cell lines [9], 327; with human ROR1 on cell lines [10], 931; with human ROR1 on cell lines [11] it was 338. In addition, the MFI (Geom. mean of FL2) was 1070 with human ROR1 on cell lines [12], 1400 with human ROR1 on cell lines [14], 294 with human ROR1 on cell lines [15] and 1430 in the experiment with human ROR1 on cell lines [17].

B1: 2A2-untagged (antibody, V domains shown)
VH: QVQLQQSGAELVRPGASVTLSCKASGYTFSDYEMHWVIQTPVHGLEWIGAIDPETGGTAYNQKFKGKAILTADKSSSTAYMELRSLTSEDSAVYYCTGYYDYDSFTYWGQGTLVTVSA
VL: DIVMTQSQKIMSTTVGDRVSITCKASQNVDAAVAWYQQKPGQSPKLLIYSASNRYTGVPDRFTGSGSGTDFTLTISNMQSEDLADYFCQQYDIYPYTFGGGTKLEIK
notes: also called untagged 2A2
Turning to B1, the MFI is 882 with human ROR1 on cell lines [21], 1070 with human ROR1 on cell lines [22] and 1070 with human ROR1 on cell lines [23].

B2: 2A2-CH1 tag (antibody, V domains shown)
VH: B1 VH
VL: B1 VL
modifications: tag in CH1 (sequence and position not given)
notes: The protocol speaks of 'each ADC', so a payload may be attached; none is named; also called CH1-tagged 2A2
Take B2: the figures for the MFI in the experiment with human ROR1 on cell lines [21], in the experiment with human ROR1 on cell lines [22] and in the experiment with human ROR1 on cell lines [23] were 786, 1050 and 1100, respectively.

B3: Mouse 2A2 Antibody (antibody, mouse IgG1, kappa, V domains shown)
VH: B1 VH
VL: DIVMTQSQKIMSTTVGDRVSITCKASQNVDAAVAWYQQKPGQSPKLLIYSASNRYTGVPDRFTGSGSGTDFTLTISNMQSEDLADYFCQQYDIYPYTFGGGTKLEIKR
notes: also called m2A2; 2A2 anti-ROR1 antibodies
For B3, the Kd (usually a measure of binding affinity in units of concentration) in experiment [24] was not above 0.4 nM; in experiment [25] it was not below 0.1 nM.

B4: 2A2-CH1/C-Terminal double tag (antibody, V domains shown)
VH: B1 VH
VL: B1 VL
modifications: tags in CH1 and at the C-terminus (sequences and positions not given)
notes: The protocol speaks of 'each ADC', so a payload may be attached; none is named; also called CH1/CT double-tagged 2A2
Take B4: the MFI in the experiment with human ROR1 on cell lines [21] was 658; with human ROR1 on cell lines [22], 869; in the experiment with human ROR1 on cell lines [23] it was 1100.

B5: 2A2-C-Terminal tag (antibody, V domains shown)
VH: B1 VH
VL: B1 VL
modifications: C-terminal tag on the antibody (sequence not given)
notes: The protocol speaks of 'each ADC', so a payload may be attached; none is named; also called CT-tagged 2A2; C-terminal (CT)-tagged 2A2
For B5, the MFI in the experiment with human ROR1 on cell lines [21] is 750; with human ROR1 on cell lines [22] it was 959; with human ROR1 on cell lines [23], 990.
